Experimental data taken from paper PMC10530652 (BME Frontiers, 2021).

Tests used:
patients [1] = experiment: Laboratory results in patients after FIB One delivery; format: in vivo, human
Source text: Table S1: Laboratory results. […] Statistical analysis using paired t-test. (Hb= haemoglobin; WCC= white cell count; ALT- alanine transaminase; CRP= C Reactive Protein).

patients [2] = experiment: Clinical observations in patients after procedure; format: in vivo, human
Source text: Table S2: Clinical observations.

[3] = test system: Salmonella typhimurium strain TA98; experiment: Reduced test article AMES test, TA98; format: cell-based; settings: up to 250 μg/well, in the absence and presence of rat liver S-9
Protocol: These conditions included treatments at concentrations up to 250 μg/well (a 20-fold pro rata reduction from the standard regulatory Ames assay maximum concentration), in the absence and in the presence of a rat liver metabolic activation system (S-9).

(Pro-Phe-Gly-Nle-Lys-βAla)3 [FIB One] was tested, and the Potassium (patients [1]; blood 4-6 hours post FIB One delivery, mean (sd), baseline 4.3 (0.4)) was 4.2 (0.4) mmol/L, the Urea (patients [1]; blood 4-6 hours post FIB One delivery, mean (sd), baseline 4.6 (1.3)) was 4.7 (1.1) mmol/L and the CRP (patients [1]; blood 4-6 hours post FIB One delivery, mean (sd), baseline 5.4 (8.1)) was 5.2 (8.1) mg/L. The WCC (patients [1]; blood 4-6 hours post FIB One delivery, mean (sd), baseline 7.6 (1.1), p <0.0001) was 10.9 (2.9) x10^9/L, the Bilirubin (patients [1]; blood 4-6 hours post FIB One delivery, mean (sd), baseline 12.5 (5.3)) was 12.4 (4.6) umol/L and the ALT (patients [1]; blood 4-6 hours post FIB One delivery, mean (sd), baseline 25.2 (18.2)) was 23.8 (15.2) IU/L. The Creatinine (patients [1]; blood 4-6 hours post FIB One delivery, mean (sd), baseline 77.5 (11.5)) was 77.3 (12.1) umol/L, the Sodium (patients [1]; blood 4-6 hours post FIB One delivery, mean (sd), baseline 138.9 (2.7), p 0.01) was 137.7 (3.2) mmol/L and the Hb (patients [1]; blood 4-6 hours post FIB One delivery, mean (sd), baseline 148.6 (11.3), p 0.0002) was 143 g/L. For the same substance, the Platelets (patients [1]; blood 4-6 hours post FIB One delivery, mean (sd), baseline 221.5 (53.2)) was 221.2 (52.6) x10^9/L, the “clinically significant alterations of laboratory results” value (patients [1]; pre procedure vs 4-6 hours post FIB One delivery) was “no clinically significant alterations” and the “Respiratory Rate” value (patients [2]; Hour 1, mean (s.d.), baseline 16 (1)) was 16 (2) bpm. For the same substance, the Temperature (patients [2]; Hour 1, mean (s.d.), baseline 36.6 (0.5)) was 36.4 (0.4) C, the “Heart Rate” value (patients [2]; Hour 1, mean (s.d.), baseline 76 (13)) was 69 (13) bpm and the “Oxygen Saturations” value (patients [2]; Hour 1, mean (s.d.), baseline 96 (1)) was 97 (2) %. The “Systolic BP” value (patients [2]; Hour 1, mean (s.d.), baseline 142 (22)) was 124 (20) mmHg, the “Heart Rate” value (patients [2]; Hour 2, mean (s.d.)) was 67 (18) bpm and the “Oxygen Saturations” value (patients [2]; Hour 2, mean (s.d.)) was 97 (2) %. The “Respiratory Rate” value (patients [2]; Hour 2, mean (s.d.)) was 17 (1) bpm, the “Systolic BP” value (patients [2]; Hour 2, mean (s.d.)) was 124 (18) mmHg and the Temperature (patients [2]; Hour 2, mean (s.d.)) was 36.4 (0.6) C. For the same substance, the “Heart Rate” value (patients [2]; Hour 3, mean (s.d.)) was 71 (12) bpm, the “Oxygen Saturations” value (patients [2]; Hour 3, mean (s.d.)) was 96 (2) % and the “Respiratory Rate” value (patients [2]; Hour 3, mean (s.d.)) was 16 (1) bpm. For the same substance, the “Systolic BP” value (patients [2]; Hour 3, mean (s.d.)) was 122 (32) mmHg, the Temperature (patients [2]; Hour 3, mean (s.d.)) was 36.5 (0.4) C and the “Heart Rate” value (patients [2]; Hour 4, mean (s.d.)) was 77 (14) bpm. The “Oxygen Saturations” value (patients [2]; Hour 4, mean (s.d.)) was 96 (2) %, the “Respiratory Rate” value (patients [2]; Hour 4, mean (s.d.)) was 16 (1) bpm and the “Systolic BP” value (patients [2]; Hour 4, mean (s.d.)) was 125 (17) mmHg. The Temperature (patients [2]; Hour 4, mean (s.d.)) was 36.8 (0.4) C, the “clinically significant variation of clinical observations” value (patients [2]; between baseline and point of discharge from study (hour 4)) was “no clinically significant variation” and the mutation induction [3] was “did not induce mutation”.
